Assay results reported in patent US20030091983A1.

Target: synthetic HA 11 A-beta (1-40) peptide (human)
Experiment: sandwich ELISA, anti-HA 11 capture, detection with position 1 or position 40 antibodies

mAB anti-HA 11 (BABCO) (antibody) was tested, and the peptide concentration at which the ELISA signal approached saturation was 10 ng/mL.
